# Assay results reported in article PMC7307101.
# Key:
# [1] = molecular target: trimeric influenza virus polymerase of A/turkey/England/50-92/1991(H5N1) (PB2, PB1-Gluc1, PA); assay: split-luciferase assay; conditions: parent: est. 30; read off a plot
# [2] = molecular target: trimeric influenza virus polymerase of A/England/195/2009(pH1N1) (PB2, PB1-Gluc1, PA); assay: split-luciferase assay; conditions: parent: est. 1.5; read off a plot
substance,measurement,setting,value
human ANP32A-Gluc2 (from UniProt P39687) I106V; P156S,response,[1],55 NLR
same,response,[2],3.5 NLR
